Measurements from patent US20180333502A1 (published 2018).
Numbering of substitutions follows the chain as printed. Names and notes keep the numbering of the source.

T1: human CD73 on Calu6 cells (human, UniProt P21589 27-549)
T1 sequence (looked up): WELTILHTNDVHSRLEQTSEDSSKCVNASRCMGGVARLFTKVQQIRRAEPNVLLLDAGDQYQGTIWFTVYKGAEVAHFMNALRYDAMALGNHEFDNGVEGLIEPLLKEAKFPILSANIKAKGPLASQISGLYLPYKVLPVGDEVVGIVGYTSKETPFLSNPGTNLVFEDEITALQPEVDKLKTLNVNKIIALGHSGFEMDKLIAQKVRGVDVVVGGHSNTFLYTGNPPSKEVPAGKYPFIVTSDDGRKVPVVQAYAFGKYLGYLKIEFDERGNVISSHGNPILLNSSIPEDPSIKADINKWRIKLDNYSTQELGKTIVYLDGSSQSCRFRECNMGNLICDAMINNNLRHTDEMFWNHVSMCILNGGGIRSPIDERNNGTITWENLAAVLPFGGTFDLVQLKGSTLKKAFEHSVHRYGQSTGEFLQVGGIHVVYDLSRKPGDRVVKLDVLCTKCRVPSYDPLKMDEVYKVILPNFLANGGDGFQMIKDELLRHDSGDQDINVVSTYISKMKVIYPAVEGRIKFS

T2: human GITR on cells (activated human T cells; 3A9-hGITR cells) (human, UniProt Q9Y5U5 26-241)
T2 sequence (looked up): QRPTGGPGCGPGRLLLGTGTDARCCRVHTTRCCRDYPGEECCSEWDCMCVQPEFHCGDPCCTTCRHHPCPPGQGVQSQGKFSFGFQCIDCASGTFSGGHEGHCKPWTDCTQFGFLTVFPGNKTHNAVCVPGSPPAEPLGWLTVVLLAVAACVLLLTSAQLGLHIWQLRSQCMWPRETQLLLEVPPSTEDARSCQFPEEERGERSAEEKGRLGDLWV

B1: CD73.10-IgG2-C219S (antibody)
heavy: QVQLVESGGGVVQPGRSLRLSCAASGFTFSNYGMHWVRQAPGKGLEWVAVIWYDESNKYYPDSVKGRFTISRDNSKNTLYLQMNSLRAEDTAVYYCARGGSSWYPDSFDIWGQGTMVTVSSASTKGPSVFPLAPCSRSTSESTAALGCLVKDYFPEPVTVSWNSGALTSGVHTFPAVLQSSGLYSLSSVVTVPSSNFGTQTYTCNVDHKPSNTKVDKTVERKSCVECPPCPAPPVAGPSVFLFPPKPKDTLMISRTPEVTCVVVDVSHEDPEVQFNWYVDGVEVHNAKTKPREEQFNSTFRVVSVLTVVHQDWLNGKEYKCKVSNKGLPAPIEKTISKTKGQPREPQVYTLPPSREEMTKNQVSLTCLVKGFYPSDIAVEWESNGQPENNYKTTPPMLDSDGSFFLYSKLTVDKSRWQQGNVFSCSVMHEALHNHYTQKSLSLSPG
light: not shown
B2: CD73.10-IgG2-C219S-IgG1.1 (antibody)
heavy: B1 heavy with Q274K, F296Y, F300Y, V309L, G327A, A330S, P331S, T339A
light: not shown
B3: CD73.4-IgG2.3G1.1f-KH (antibody)
heavy: QVQLVESGGGVVQPGRSLRLSCAASGFTFSNYGMHWVRQAPGKGLEWVAVILYDGSNKYYPDSVKGRFTISRDNSKNTLYLQMNSLRAEDTAVYYCARGGSSWYPDSFDIWGQGTMVTVSSASTKGPSVFPLAPCSRSTSESTAALGCLVKDYFPEPVTVSWNSGALTSGVHTFPAVLQSSGLYSLSSVVTVPSSNFGTQTYTCNVDHKPSNTKVDKTVERKSCVECPPCPAPPVAGPSVFLFPPKPKDTLMISRTPEVTCVVVDVSHEDPEVKFNWYVDGVEVHNAKTKPREEQYNSTYRVVSVLTVLHQDWLNGKEYKCKVSNKALPSSIEKTISKAKGQPREPQVYTLPPSREEMTKNQVSLTCLVKGFYPSDIAVEWESNGQPENNYKTTPPVLDSDGSFFLYSKLTVDKSRWQQGNVFSCSVMHEALHNHYTQKSLSLSPGK
light: not shown
B4: anti-GITR-IgG2 (antibody)
heavy: QVQLVESGGGVVQPGRSLRLSCAASGFTFSSYGMHWVRQAPGKGLEWVAVIWYEGSNKYYADSVKGRFTISRDNSKNTLYLQMNSLRAEDTAVYYCARGGSMVRGDYYYGMDVWGQGTTVTVSSASTKGPSVFPLAPCSRSTSESTAALGCLVKDYFPEPVTVSWNSGALTSGVHTFPAVLQSSGLYSLSSVVTVPSSNFGTQTYTCNVDHKPSNTKVDKTVERKCCVECPPCPAPPVAGPSVFLFPPKPKDTLMISRTPEVTCVVVDVSHEDPEVQFNWYVDGVEVHNAKTKPREEQFNSTFRVVSVLTVVHQDWLNGKEYKCKVSNKGLPAPIEKTISKTKGQPREPQVYTLPPSREEMTKNQVSLTCLVKGFYPSDIAVEWESNGQPENNYKTTPPMLDSDGSFFLYSKLTVDKSRWQQGNVFSCSVMHEALHNHYTQKSLSLSPGK
light: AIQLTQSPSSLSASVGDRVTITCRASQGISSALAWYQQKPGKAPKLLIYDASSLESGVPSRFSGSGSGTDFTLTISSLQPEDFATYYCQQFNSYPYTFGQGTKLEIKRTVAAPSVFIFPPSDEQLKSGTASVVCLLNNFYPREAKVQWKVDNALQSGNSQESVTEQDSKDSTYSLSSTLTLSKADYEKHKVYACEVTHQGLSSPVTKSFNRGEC
B5: 11F11 (antibody, human IgG2, kappa, V domains shown)
VH: QVQLVESGGGVVQPGRSLRLSCATSGFTFSNYGMHWVRQAPGKGLEWVAVILYDGSNKYYPDSVKGRFTISRDNSKNTLYLQMNSLRAEDTAVYYCARGGSSWYPDSFDIWGQGTMVTVSS
VL: DIQMTQSPSSLSASVGDRVTITCRASQGISSWLAWYQQKPEKAPKSLIYAASSLQSGVPSRFSGSGSGTDFTLTISSLQPEDFATYYCQQYNSYPLTFGGGTKVEIKR

Tests used:
[1] = biological target: T1, human CD73 on Calu6 cells; test: cell-based or functional assay
[2] = biological target: T2, human GITR on cells (activated human T …); test: cell-based or functional assay

Binder | Ymax, CD73 internalization, Calu6 cells, 2 h [1] | Emax (%), phospho-p65 NFkB signaling, CD4+ T cells [2] | Emax (%), phospho-p65 NFkB signaling, CD8+ T cells [2]
B1 | 99 % of 100 nM 11F11 |  | 
B2 | 99 % of 100 nM 11F11 |  | 
B3 | 97 % of 100 nM 11F11 |  | 
B4 |  | 69 % of GITR.6.G2.G1f | 85 % of GITR.6.G2.G1f
B5 | 98 % of 100 nM 11F11 |  | 
